Reference: IntAct's records for PubMed 27918561

B1: Negative regulator of P-body association (Homo sapiens), A0A0U1RRE5 (parent)
chain: MGDQPCASGRSTLPPGNAREAKPPKKRCLLAPRWDYPEGTPNGGSTTLPSAPPPASAGLKSHPPPPEK
partner: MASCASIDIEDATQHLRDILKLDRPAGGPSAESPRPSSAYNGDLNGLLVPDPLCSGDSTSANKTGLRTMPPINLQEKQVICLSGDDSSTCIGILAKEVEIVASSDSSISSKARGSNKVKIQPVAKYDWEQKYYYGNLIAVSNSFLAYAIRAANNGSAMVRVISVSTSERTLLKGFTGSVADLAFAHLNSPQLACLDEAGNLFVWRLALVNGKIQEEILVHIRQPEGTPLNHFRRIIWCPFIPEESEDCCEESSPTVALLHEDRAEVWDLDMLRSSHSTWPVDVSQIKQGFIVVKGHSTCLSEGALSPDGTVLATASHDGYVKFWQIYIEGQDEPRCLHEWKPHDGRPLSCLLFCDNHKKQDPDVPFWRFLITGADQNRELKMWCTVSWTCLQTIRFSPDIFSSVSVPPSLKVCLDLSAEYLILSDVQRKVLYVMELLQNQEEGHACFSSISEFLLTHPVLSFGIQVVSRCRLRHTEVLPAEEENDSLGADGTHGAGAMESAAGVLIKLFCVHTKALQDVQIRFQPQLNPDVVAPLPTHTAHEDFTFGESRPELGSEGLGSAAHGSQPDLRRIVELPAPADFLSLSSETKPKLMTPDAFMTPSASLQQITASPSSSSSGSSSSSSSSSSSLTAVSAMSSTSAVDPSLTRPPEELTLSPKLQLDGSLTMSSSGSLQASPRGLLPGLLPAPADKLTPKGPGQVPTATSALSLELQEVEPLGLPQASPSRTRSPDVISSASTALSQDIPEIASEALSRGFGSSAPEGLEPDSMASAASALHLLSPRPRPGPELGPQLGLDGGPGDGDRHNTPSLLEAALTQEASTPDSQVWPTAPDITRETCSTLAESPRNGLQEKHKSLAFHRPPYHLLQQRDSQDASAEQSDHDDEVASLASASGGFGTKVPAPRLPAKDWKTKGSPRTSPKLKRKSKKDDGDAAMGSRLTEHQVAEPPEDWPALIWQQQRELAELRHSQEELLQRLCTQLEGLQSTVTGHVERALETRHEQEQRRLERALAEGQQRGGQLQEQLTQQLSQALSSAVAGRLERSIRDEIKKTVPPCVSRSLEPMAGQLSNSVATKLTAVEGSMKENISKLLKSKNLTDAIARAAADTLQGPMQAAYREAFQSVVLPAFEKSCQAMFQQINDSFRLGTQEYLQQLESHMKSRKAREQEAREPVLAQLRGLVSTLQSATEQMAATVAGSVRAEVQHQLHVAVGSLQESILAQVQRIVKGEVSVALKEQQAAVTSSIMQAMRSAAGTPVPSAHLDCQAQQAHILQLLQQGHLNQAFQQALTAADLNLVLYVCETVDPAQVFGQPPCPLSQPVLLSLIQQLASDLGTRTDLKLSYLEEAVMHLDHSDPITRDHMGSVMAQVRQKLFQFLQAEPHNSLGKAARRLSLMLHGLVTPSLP

Variants of: B1
Details: with edc4_human EDC4, Q6P2E9

| Variant | effect of a mutation on the interaction |
| --- | --- |
| MGDQPCASGRSTLPPGNAREAKPPKKRCLLAPRWDAPEGTPNGGSTTLPSAPPPASAGLKSHPPPPEK [Y36A] | with no effect |
| MGDQPCASGRSTLPPGNAREAKPPKKACLLAPRWDYPEGTPNGGSTTLPSAPPPASAGLKSHPPPPEK [R27A] | with no effect |
| MGDQPCASGRSTLPPGNAREAKAPKKRCLLAPRWDYPEGTPNGGSTTLPSAPPPASAGLKSHPPPPEK [P23A] | with no effect |
| MGDQPCASGRSTLPPGNAREAKPPKARCLLAPRWDYPEGTPNGGSTTLPSAPPPASAGLKSHPPPPEK [K26A] | with no effect |
| MGDQPCASGRSTLPPGNAREAKPPKKRALLAPRWDYPEGTPNGGSTTLPSAPPPASAGLKSHPPPPEK [C28A] | with no effect |
| MGDQPCASGRSTLPPGNAREAKPPKKRCLLAARWDYPEGTPNGGSTTLPSAPPPASAGLKSHPPPPEK [P32A] | with no effect |
| MGDQPCASGRSTLPPGNAREAKPPKKRCLLAPRWAYPEGTPNGGSTTLPSAPPPASAGLKSHPPPPEK [D35A] | with no effect |
| MGDQPCASGRSTLPPGNAREAKPPKKRCLLAPRWDYPEATPNGGSTTLPSAPPPASAGLKSHPPPPEK [G39A] | with no effect |
| MGDQPCASGRSTLPPGNAREAKPPKKRCLLAPRWDYAEGTPNGGSTTLPSAPPPASAGLKSHPPPPEK [P37A] | with no effect |
| MGDQPCASGRSTLPPGNAREAKPPKKRCLLAPRADYPEGTPNGGSTTLPSAPPPASAGLKSHPPPPEK [W34A] | disrupting interaction strength |
| MGDQPCASGRSTLPPGNAREAKPPAKRCLLAPRWDYPEGTPNGGSTTLPSAPPPASAGLKSHPPPPEK [K25A] | with no effect |
| MGDQPCASGRSTLPPGNAREAKPAKKRCLLAPRWDYPEGTPNGGSTTLPSAPPPASAGLKSHPPPPEK [P24A] | with no effect |
| MGDQPCASGRSTLPPGNAREAKPPKKRCLLAPRWDYPEGTANGGSTTLPSAPPPASAGLKSHPPPPEK [P41A] | with no effect |
| MGDQPCASGRSTLPPGNAREAKPPKKRCLLAPRWDYPAGTPNGGSTTLPSAPPPASAGLKSHPPPPEK [E38A] | with no effect |
| MGDQPCASGRSTLPPGNAREAKPPKKRCLAAPRWDYPEGTPNGGSTTLPSAPPPASAGLKSHPPPPEK [L30A] | disrupting interaction strength |
| MGDQPCASGRSTLPPGNAREAAPPKKRCLLAPRWDYPEGTPNGGSTTLPSAPPPASAGLKSHPPPPEK [K22A] | with no effect |
| MGDQPCASGRSTLPPGNAREAKPPKKRCLLAPRWDYPEGAPNGGSTTLPSAPPPASAGLKSHPPPPEK [T40A] | with no effect |
| MGDQPCASGRSTLPPGNAREAKPPKKRCLLAPAWDYPEGTPNGGSTTLPSAPPPASAGLKSHPPPPEK [R33A] | with no effect |
| MGDQPCASGRSTLPPGNAREAKPPKKRCALAPRWDYPEGTPNGGSTTLPSAPPPASAGLKSHPPPPEK [L29A] | with no effect |
